Numbering of substitutions follows the chain as printed. One block for each binder: values may come before it.
How the values were obtained:
[1] = target: T1, mouse IL-10Rα on splenocytes (mouse, UniProt Q61727 17-575); test: flow cytometry on splenocytes
T1 construct: whole, on cells
T1 sequence (looked up): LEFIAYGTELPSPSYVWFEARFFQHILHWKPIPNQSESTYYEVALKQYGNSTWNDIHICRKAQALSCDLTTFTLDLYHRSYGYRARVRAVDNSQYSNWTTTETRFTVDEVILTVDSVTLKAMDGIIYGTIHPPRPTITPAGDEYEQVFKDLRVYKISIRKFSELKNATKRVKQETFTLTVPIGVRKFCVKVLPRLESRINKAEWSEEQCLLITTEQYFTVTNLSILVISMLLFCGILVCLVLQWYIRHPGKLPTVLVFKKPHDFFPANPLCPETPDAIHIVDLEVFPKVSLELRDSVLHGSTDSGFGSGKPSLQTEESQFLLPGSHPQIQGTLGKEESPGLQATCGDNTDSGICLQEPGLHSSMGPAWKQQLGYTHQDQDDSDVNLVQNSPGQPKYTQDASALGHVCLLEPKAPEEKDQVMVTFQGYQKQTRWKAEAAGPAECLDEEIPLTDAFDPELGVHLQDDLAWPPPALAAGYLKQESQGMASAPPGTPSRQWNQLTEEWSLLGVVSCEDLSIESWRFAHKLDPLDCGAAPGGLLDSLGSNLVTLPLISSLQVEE

[2] = target: T2, cynomolgus macaque IL-10Rα extracellular domain fused to the Fc portion of human IgG1 (cynomolgus macaque); test: ELISA, coated cynomolgus IL-10Rα:hFc
T2 construct: The entry includes the signal peptide; also called cynomolgus IL-10Rα:hFc; cyIL-10Rα
Excerpt: Titration of anti-IL-10Rα antibodies binding to coated chimp or cynomolgus IL-10Rα:hFc. Binding was detected with anti-human kappa-HRP, anti-mouse IgG-HRP, or anti-rat IgG-HRP. Different anti-rat-IgG HRP and anti-mouse IgG antibodies were used to generate the data in panels A and B. The nature of these secondary antibodies can affect the results and lead to different maximum binding (BMAX). The BMAX from these studies are described in Table 5.
IL-10Rα Specific Antibody Detection ELISA: Antibody titers, specificity, and production by hybridomas were determined by ELISA. In brief, 96 well flat bottom Maxisorb plates were coated with 50 μl of hIL-10Rα (R&D Systems, Minneapolis, Minn.) at 1 μg/ml in carbonate buffer (pH 9.4) overnight at 4° C. or at 37° C. for 1 hour. After washing three times with PBS/0.05% Tween 20, plates were blocked with Superblock blocking buffer in TBS (Pierce) at room temperature for 30 minutes. The serum, supernatant, or purified antibody was diluted in blocking buffer, added to the wells, and the plates were incubated for 1 hour at room temperature. The plates were washed 3 times with PBS/0.05% Tween 20 and peroxidase-conjugated goat anti-human IgG (Fcγ specific), anti-rat IgG, or anti-mouse IgG detection antibodies (Jackson Immunoresearch) were added at a dilution of 1:5000. Multiple lots of anti-rat and anti-mouse IgG antibodies were used in different assays. […] Following a 1 hour incubation at room temperature, the plates were washed and the TMB (Sigma) substrate was added and incubated at room temperature for 5 to 10 minutes. The reaction was stopped with H₂SO₄ (LabChem) and the optical density was measured at 450 nm by a microplate reader. A second ELISA protocol using soluble human, chimp and cynomolgus IL-10Rα:hFc recombinant proteins as the coating antigens was also employed. In this assay, binding of specific human IgG were detected with a peroxidase labeled sheep anti-human kappa antibody (The Binding Site, Birmingham, UK).

Ac-YHSNGYRARVRA-NH2 = target: T3, Ac-YHSNGYRARVRA-NH2 (human); test: dot blot on PVDF or nitrocellulose membrane
T3 peptide: Ac-YHSNGYRARVRA-NH2
Method: (§1) Methods to detect antibody binding to peptides derived from the human IL-10Rα sequence: Multiple methods were employed to detect binding of anti-human IL-10Rα antibodies to peptides derived from the extracellular domain of human IL-10Rα that have been reported by Reineke, et al. (Reineke, et al., Protein Sci 7:951 (1998)) to be included in the IL-10 binding site of the receptor. The following amide synthesized peptides were tested: Ac-[…]-NH2, Ac-[…]-NH2, Ac-[…]-NH2, Ac-[…]-NH2, Ac-[…]-NH2 (SEQ ID NO. 81-85). In addition, the following biotinylated peptides were tested: Biotin-[…]-NH2, Biotin-[…]-NH2 (SEQ ID NO. 86-87). The amide peptides were synthesized by A&A Labs, LLC (San Diego, Calif.) and the biotinylated peptides were synthesized by GenScript (Piscataway, N.J.) both at >95% purity and reconstituted at 20 mg/ml in DMSO. In one assay design peptides were spotted at 5 μg/spot in PBS onto PVDF membranes or nitrocellulose membranes that had been prepared according to the manufacturer's instructions. The membranes were incubated with anti-IL-10Rα antibodies using standard Western blotting methods (e.g. Towbin, et al., Proc Natl Acad Sci 76:4350 (1979)). Native human IL-10Ra:hFc and heat denatured human IL-10Ra:hFc were also spotted at 1 μg/spot on the membranes as controls. Negative controls included an irrelevant peptide and isotype controls. […] None of the antibodies bound to the spotted denatured protein or to any of the peptides derived from the human IL-10Ra extracellular domain or the irrelevant peptide.

Ac-TVTNTRFSVD-NH2 = target: T4, Ac-TVTNTRFSVD-NH2 (human); test: dot blot on PVDF or nitrocellulose membrane
T4 peptide: Ac-TVTNTRFSVD-NH2
Method: as §1

Ac-SIFSHFREYE-NH2 = target: T5, Ac-SIFSHFREYE-NH2 (human); test: dot blot on PVDF or nitrocellulose membrane
T5 peptide: Ac-SIFSHFREYE-NH2
Method: as §1

Ac-GNFTFTHKKV-NH2 = target: T6, Ac-GNFTFTHKKV-NH2 (human); test: dot blot on PVDF or nitrocellulose membrane
T6 peptide: Ac-GNFTFTHKKV-NH2
Method: as §1

Ac-SVASRSNKGM-NH2 = target: T7, Ac-SVASRSNKGM-NH2 (human); test: dot blot on PVDF or nitrocellulose membrane
T7 peptide: Ac-SVASRSNKGM-NH2
Method: as §1

binding result [1]: no binding | BMAX [2]: 1.64 OD | binding result (Ac-YHSNGYRARVRA-NH2): no binding (tested: 5 µg/spot) | binding result (Ac-TVTNTRFSVD-NH2): no binding (tested: 5 µg/spot) | binding result (Ac-SIFSHFREYE-NH2): no binding (tested: 5 µg/spot) | binding result (Ac-GNFTFTHKKV-NH2): no binding (tested: 5 µg/spot) | binding result (Ac-SVASRSNKGM-NH2): no binding (tested: 5 µg/spot)
B1: 136C5 (antibody, V domains shown)
VH: EVQLVESGGGLVQPGGSLRLSCAASGFTFSSYSMNWVRQAPGKGLEWVSYISTGSSTIYYADSVKGRFTISRDNAKNSLYLQMNSLRDEDTAVYYCARENYYGSGSYEDYFDYWGQGTLVTVSS
VL: EIVLTQSPATLSLSPGERATLSCRASQSVSSYLAWYQQKPGQAPRLLIYDASNRATGIPARFSGSGSGTDFTLTISSLEPEDFAVYYCQQRSNWPIFTFGPGTKVDIK
notes: Hybridoma antibody, human IgG1, kappa light chain; also called human anti-human IL-10Rα monoclonal antibody 136C5; hybridoma deposit PTA-9131

binding result [1]: no binding | BMAX [2]: 1.66 OD | binding result (Ac-YHSNGYRARVRA-NH2): no binding (tested: 5 µg/spot) | binding result (Ac-TVTNTRFSVD-NH2): no binding (tested: 5 µg/spot) | binding result (Ac-SIFSHFREYE-NH2): no binding (tested: 5 µg/spot) | binding result (Ac-GNFTFTHKKV-NH2): no binding (tested: 5 µg/spot) | binding result (Ac-SVASRSNKGM-NH2): no binding (tested: 5 µg/spot)
B2: 136C8 (antibody, V domains shown)
VH: B1 VH with G54R
VL: B1 VL
notes: Hybridoma antibody, human IgG2, kappa light chain; also called human anti-human IL-10Rα monoclonal antibody 136C8; hybridoma deposit PTA-9132

Source: patent publication US20110144312A1 (Kyowa Kirin, published 2011)
